Results: IntAct's records for PubMed 25783203

B1: Vacuolar protein sorting-associated protein 33A (Homo sapiens), Q96AX1 (parent)
chain: MAAHLSYGRVNLNVLREAVRRELREFLDKCAGSKAIVWDEYLTGPFGLIAQYSLLKEHEVEKMFTLKGNRLPAADVKNIIFFVRPRLELMDIIAENVLSEDRRGPTRDFHILFVPRRSLLCEQRLKDLGVLGSFIHREEYSLDLIPFDGDLLSMESEGAFKECYLEGDQTSLYHAAKGLMTLQALYGTIPQIFGKGECARQVANMMIRMKREFTGSQNSIFPVFDNLLLLDRNVDLLTPLATQLTYEGLIDEIYGIQNSYVKLPPEKFAPKKQGDGGKDLPTEAKKLQLNSAEELYAEIRDKNFNAVGSVLSKKAKIISAAFEERHNAKTVGEIKQFVSQLPHMQAARGSLANHTSIAELIKDVTTSEDFFDKLTVEQEFMSGIDTDKVNNYIEDCIAQKHSLIKVLRLVCLQSVCNSGLKQKVLDYYKREILQTYGYEHILTLHNLEKAGLLKPQTGGRNNYPTIRKTLRLWMDDVNEQNPTDISYVYSGYAPLSVRLAQLLSRPGWRSIEEVLRILPGPHFEERQPLPTGLQKKRQPGENRVTLIFFLGGVTFAEIAALRFLSQLEDGGTEYVIATTKLMNGTSWIEALMEKPF
partner: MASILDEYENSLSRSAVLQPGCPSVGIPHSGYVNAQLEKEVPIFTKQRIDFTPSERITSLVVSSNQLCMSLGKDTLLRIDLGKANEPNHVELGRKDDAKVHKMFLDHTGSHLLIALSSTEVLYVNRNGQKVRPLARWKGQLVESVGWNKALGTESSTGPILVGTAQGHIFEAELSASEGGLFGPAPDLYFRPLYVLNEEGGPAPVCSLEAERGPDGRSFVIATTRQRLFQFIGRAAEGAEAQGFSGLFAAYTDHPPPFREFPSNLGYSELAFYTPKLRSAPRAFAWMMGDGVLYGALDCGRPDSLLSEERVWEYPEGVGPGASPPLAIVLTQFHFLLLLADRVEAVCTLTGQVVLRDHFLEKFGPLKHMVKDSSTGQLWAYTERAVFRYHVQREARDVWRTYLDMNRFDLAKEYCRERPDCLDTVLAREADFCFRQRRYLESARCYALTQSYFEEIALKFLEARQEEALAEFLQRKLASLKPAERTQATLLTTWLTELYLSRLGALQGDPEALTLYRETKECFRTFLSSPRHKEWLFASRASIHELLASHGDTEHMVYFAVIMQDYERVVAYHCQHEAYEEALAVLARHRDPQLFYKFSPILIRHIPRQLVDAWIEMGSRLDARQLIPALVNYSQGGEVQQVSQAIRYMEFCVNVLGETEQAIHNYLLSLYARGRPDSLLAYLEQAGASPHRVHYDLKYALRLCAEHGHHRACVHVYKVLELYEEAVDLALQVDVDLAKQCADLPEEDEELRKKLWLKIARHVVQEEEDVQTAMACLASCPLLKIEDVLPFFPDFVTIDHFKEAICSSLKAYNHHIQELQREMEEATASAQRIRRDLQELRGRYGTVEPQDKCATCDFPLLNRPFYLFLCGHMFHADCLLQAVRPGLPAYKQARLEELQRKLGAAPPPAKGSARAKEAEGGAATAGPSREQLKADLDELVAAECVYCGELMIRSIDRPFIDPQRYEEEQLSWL

Variants of: B1
Conditions: with vps18_human VPS18, Q9P253

effect of a mutation on the interaction	Variant
disrupting interaction	K429D;I441K
disrupting interaction	K429D;Y438D
disrupting interaction	Y438D;I441K
